For experiment [1], the target named is biotinylated NM^K184C seed (Saccharomyces cerevisiae) (UniProt P05453). Put plainly: capture of biotinylated seed on Streptavidin-coated Dynabeads, SDS wash, scintillation counting.
Experiment [2] concerns the target NM (N-terminal and middle region of Sup35p), soluble / unpolymerized (Saccharomyces cerevisiae) (UniProt P05453). Put plainly: cell-based or functional assay.

NM (N-terminal and middle region of Sup35p), soluble / unpolymerized (Saccharomyces cerevisiae), sequence (P05453 1-253): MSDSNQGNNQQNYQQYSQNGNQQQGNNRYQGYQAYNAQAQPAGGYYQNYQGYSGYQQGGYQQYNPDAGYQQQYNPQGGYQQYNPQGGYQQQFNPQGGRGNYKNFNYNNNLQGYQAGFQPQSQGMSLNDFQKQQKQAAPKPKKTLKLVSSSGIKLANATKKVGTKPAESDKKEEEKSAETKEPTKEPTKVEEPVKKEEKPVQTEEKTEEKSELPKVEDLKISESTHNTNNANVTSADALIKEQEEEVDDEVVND
biotinylated NM^K184C seed (Saccharomyces cerevisiae), sequence (P05453 1-253 K184C): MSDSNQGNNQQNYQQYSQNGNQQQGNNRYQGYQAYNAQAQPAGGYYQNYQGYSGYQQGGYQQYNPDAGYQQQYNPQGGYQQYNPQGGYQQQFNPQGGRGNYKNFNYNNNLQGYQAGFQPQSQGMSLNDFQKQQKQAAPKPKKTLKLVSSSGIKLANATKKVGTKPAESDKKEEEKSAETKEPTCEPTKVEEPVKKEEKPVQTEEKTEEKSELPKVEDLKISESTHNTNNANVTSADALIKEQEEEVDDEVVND

“NM^T158C-iodo[1-^14C]acetamide (soluble) (from UniProt P05453 1-253)” showed a fraction of seed-bound NM soluble in SDS in experiment [1] of 50%.

Take “Hsp104 (from UniProt P31539 1-908) (enzyme)”: in experiment [2], the IC50 of inhibition of NM fibrillization, no nucleotide was found to be 7600 nM; the IC50 of inhibition of NM fibrillization, with ADP came out at 3100 nM; the IC50 of inhibition of NM fibrillization, with AMP-PNP was 200 nM; the IC50 of inhibition of NM fibrillization, with ATP hydrolysis was found to be 100 nM.

The values are drawn from patent publication US20060105320A1.
